Laboratory results reported in US20090196872A1 (KIRIN BEER, published 2009).

molecular target: T1, M2 protein expressed on A/PR/8/34 infected MDCK cells (influenza A virus A/PR/8/34, UniProt P06821 1-97); assay: cell-based ELISA, half-saturating antibody concentration
T1 construct: whole, on cells
T1 sequence (P06821 whole entry): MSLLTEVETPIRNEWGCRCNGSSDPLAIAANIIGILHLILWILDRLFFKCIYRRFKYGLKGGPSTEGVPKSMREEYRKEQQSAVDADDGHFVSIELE

Binder	Kd [nM]
human anti-M2 monoclonal antibody N547 (antibody, V domains shown) VH: not shown VL: QSVLTQPPSMSAAPGQKVTISCSGSSSNIGNNYISWYQQLPGTAPKVLIYDNNKRPSGIPDRFSGSKSGTSATLGITGLQTGDEADYYCGSWDSSLSAGVFGTGTKVTVLG	1.05
human anti-M2 monoclonal antibody L66 (antibody, V domains shown) VH: EVQLVESGGGVVRPGGSLRLSCAASGFTFDDYGMSWVRQAPGKGLEWVSGINWNGGSTGYADSVKGRFTISRDNAKNSLYLQMNSLRAEDTALYYCARDRVTMVRGVIMDYYGMDVWGQGTTVTVSS VL: QTVVTQEPSLTVSPRGTVTLTCSSSTGAVTSGYYPGWFQLKPGQAPMSLIYSARKKHSWTPARFSGSLLGGKAALTLSGVQPEDEAEYYCLLYYGGAYVFGTGTKVTVLG	0.563
human anti-M2 monoclonal antibody no. Z3G1 (recombinant IgG1 type Z3, CHO; ATCC PTA-5967) (antibody, V domains shown) VH: QVQLVQSGAEVKKPGASVKVSCKASGYTFTSYGISWVRQAPGQGLEWMGWISAYNGNTNYAQKLQGRVTMTTDTSTSTAYMELRSLRSDDTAVYYCARAAAGGYFQHWGQGTLVTVSS VL: not shown	0.497
human anti-M2 monoclonal antibody C40G1 (antibody, V domains shown) VH: QLQLQESGPGLVKPSETLSLTCTVSGGSISSSFYYCGWIRQPPGKGLEWIGSIYYRGSTYYNPSLKSRVTISVDTSKNQFSLKLSSVTAADTAVYYCARRVTMVRGVKGDYFDYWGQGTLVTVSS VL: DIQMTQSPSSLSASVGDRVTITCRASQGISSWLAWYQQKPEKVPKSLIYAASSLQSGVPSRFSGSGSGTDFTLTISSLQPEDFATYYCQQYNYYPLTFGGGTKVEIKR	0.519
